This is an account of results in publication doi:10.1101/2025.11.04.686334 (bioRxiv, 2025).

This test has as its target HA head domain of A/Hong Kong/1/1968 (H3N2) (Influenza A virus A/Hong Kong/1/1968 …, strain). The experiment in a line: ELISA. As to conditions: both partners purified. In general terms: In an ELISA, binding on a coated surface is turned into a signal by an enzyme label.

B1: FluA-20 mAb (antibody, V domains shown)
VH: QVQLEESGPGLVKPSETLSLTCSVSGVSVTSDIYYWTWIRQPPGKGLEWIGYIFYNGDTNYNPSLKSRVTMSIDTSKNEFSLRLTSVTAADTAVYFCARGTEDLGYCSSGSCPNHWGQGTLVTVSS
VL: DIVMTQSPSSLSASIGDRVTITCRPSQNIRSFLNWFQHKPGKAPKLLIYAASNLQSGVPSRFSGSGSGTEFTLTIRSLQPEDFATYYCQQSYNTPPTFGQGTKVEIK
As for B1, the binding result was “binds”.
